These results are taken from patent US20230192875A1 (KUMHO HT, published 2023).

The target in test [1] is T1, recombinant human CD40 (R&D systems, Cat. No.: P25942) (human, UniProt P25942 21-193).
T1 construct: also called rCD40; human recombinant CD40
The test is described as follows: ELISA, coated CD40 100 ng/well, hybridoma culture supernatant. The method, then: Human recombinant CD40 (R&D systems, Cat. No.:P25942) was plated in an amount of 100.0 ng per well into a MaxiSorp ELISA plate and reacted at 37° C. for one hour for antibody coating, followed by blocking by incubation with 200 μL of 1× blocking solution (Sigma) per well at 37° C. for one hour.

The target in test [2] is T2, recombinant antigen human CD40L (Recombinant Human sCD40 Ligand; Peprotech, Cat. No.: 310-02) (human, UniProt P29965 113-261).
T2 construct: Soluble recombinant CD40L; also called rCD40L; recombinant antigen CD40L
T2 chain: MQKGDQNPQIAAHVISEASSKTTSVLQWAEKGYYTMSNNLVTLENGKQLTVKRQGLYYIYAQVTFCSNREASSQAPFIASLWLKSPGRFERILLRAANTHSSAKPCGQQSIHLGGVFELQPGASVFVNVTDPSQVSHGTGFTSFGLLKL
As to the kind of experiment: ELISA, antigen coated at 1.0 µg/mL, antibody at 1.0 µg/mL, anti-mouse IgG-HRP. In general terms: In an ELISA, binding on a coated surface is turned into a signal by an enzyme label.

In test [3] the target is T3, human CD40 expressed on Ramos cell line (ATCC CRL-1596) (human, UniProt P25942 21-277).
T3 construct: whole, on cells; Endogenous CD40 on Ramos cells; also called CD40 on Ramos cells
T3 sequence (P25942 21-277): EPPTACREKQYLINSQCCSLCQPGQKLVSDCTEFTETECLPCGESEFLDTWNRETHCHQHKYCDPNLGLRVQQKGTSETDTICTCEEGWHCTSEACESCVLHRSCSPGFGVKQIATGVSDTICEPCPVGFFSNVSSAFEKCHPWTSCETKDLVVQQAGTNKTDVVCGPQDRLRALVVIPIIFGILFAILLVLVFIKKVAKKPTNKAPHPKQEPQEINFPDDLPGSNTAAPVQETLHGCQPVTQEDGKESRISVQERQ
The test is described as follows: flow cytometry on Ramos cells, FITC-5C2 1.0 µg/mL, with or without preincubation with CD40L 15.0 µg/mL. The method, then:
A solution of FITC Isomer I (Invitrogen, Cat. No.: F1906) at a concentration of 2.6 mg/mL in DMSO (Sigma-Aldrich, Cat. No.:276855) was added in an amount of 20.0 μL to each of the antibody solutions. After FITC conjugation by stirring at room temperature for 2 hours, the resulting antibody solutions were dialyzed against phosphate buffered saline to obtain FITC-labeled antibodies.
The cells were washed again with phosphate buffered saline and then subjected to fluorescent immunoassay using flow cytometry (Stratedigm, S1000EXi).

Test [4] concerns the target T4, recombinant antigen human CD40 (Sino Biological Inc., Cat. No.: 10774-H02H) (human, UniProt P25942 21-193).
T4 construct: Bought antigen used in the ELISA of the chimeric antibodies
As to the kind of experiment: ELISA (FIG. 2). The method, then:
A dilution of the recombinant antigen human CD40 (Sino Biological Inc., Cat. No.: 10774-H02H) at a concentration of 1.0 μg/mL in phosphate buffered saline was plated at 100 μL/well into microplates and incubated at 37° C. for one hour to coat the plates therewith. Then, a 1× blocking solution (Sigma) was added in an amount of 200 μL per well and incubated at 37° C. for one hour to block the antigen.
The dilutions were added in an amount of 100 μL/well, incubated at 37° C. for one hour and washed three times with phosphate buffered saline. The antibodies were treated with the secondary antibody goat anti-human IgG F(ab′)2-HRP (Jackson Immunoresearch, Cat. No.: 109-035-006) at 37° C. for 30 min and washed three times with phosphate buffered saline. After reaction with 100 μL of TMB Single Solution (Life Technologies, Cat. No: 002023) per well at room temperature for 4-10 min in a dark place, the color development was stopped with 100 μL of 1.0 N sulfuric acid and then absorbance at 450 nm was measured.

Test [5] concerns the target T1, recombinant human CD40 (R&D systems, …). As to the kind of experiment: ELISA, coated rCD40 1.0 µg/mL, CHO culture supernatant. The method, then: Each of the humanized antibody cultures was assayed for reactivity for a recombinant antigen human CD40 (rCD40; R&D systems, Cat. No.: P25942) by ELISA. For this assay, a dilution of rCD40 at a concentration of 1.0 μg/mL in phosphate buffered saline was plated at a density of 100 μL/well into microplates and incubated at 37° C. for one hour to coat the microplates with the antigen which was then blocked by adding a 1× blocking solution (Sigma) in an amount of 200 μl per well and incubating at 37° C. for one hour.
Following one hour of incubation with 100 μL of each of the humanized anti-CD40 antibody cultures at 37° C., the microplates were washed three times with phosphate buffered saline. Treatment with the secondary antibody goat anti-human IgG F(ab′)2-HRP (Jackson Immunoresearch, Cat. No.: 109-035-006) at 37° C. for 30 min was followed by three rounds of washing with phosphate buffered saline. Then, TMB Single Solution (Life Technologies, Cat. No: 002023) was added in an amount of 100 μl per well and incubated at room temperature for 5-10 min in a dark place. Color development was stopped with 100 μL of 1.0 N sulfuric acid and absorbance at 450 nm was measured.

T4 sequence (P25942 21-193 limits assumed): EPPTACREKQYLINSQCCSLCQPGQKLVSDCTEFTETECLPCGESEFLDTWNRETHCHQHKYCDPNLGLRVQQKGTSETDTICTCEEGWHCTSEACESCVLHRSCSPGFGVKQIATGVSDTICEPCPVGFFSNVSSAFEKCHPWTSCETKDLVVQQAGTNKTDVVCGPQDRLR
T1 sequence (P25942 21-193 limits assumed, one chain of several): as the sequence (P25942 21-193 limits assumed) above

B1: anti-CD40 mouse monoclonal antibody 5C2 (antibody, V domains shown)
VH: QVQMLQSGTELVRPGTSVKVSCKASGYGFTNYLIEWVKQRPGQGLEWIGVINPGYGGVNYNEKFKGKAILTADKSSSTAYMHLTSLTSDDSAVYFCARGGSGFAFWGQGTLVTVST
VL: DIQMTQTTSSLSASLGQRVTISCRASQDISNHLNWYQQKPNGTVRLLISSTSRLHSGVPSRFSGSGSGTDYSLTISNLEQEDIATYFCQQGNTLPWTFGGGTKLEIK
notes: also called 5C2 antibody (mouse antibody); antibody of hybridoma KCLRF-BP-00381
With B1, the results for the binding result in test [1], in test [2] and in test [3] were “binds”, “no binding (tested: 1.0 µg/mL)” and “binds”, respectively.

B2: anti-CD40 5C2 chimeric antibody comprising human IgG1 constant region (antibody)
heavy: not shown
light: DIQMTQTTSSLSASLGQRVTISCRASQDISNHLNWYQQKPNGTVRLLISSTSRLHSGVPSRFSGSGSGTDYSLTISNLEQEDIATYFCQQGNTLPWTFGGGTKLEIKRTVAAPSVFIFPPSDEQLKSGTASVVCLLNNFYPREAKVQWKVDNALQSGNSQESVTEQDSKDSTYSLSSTLTLSKADYEKHKVYACEVTHQGLSSPVTKSFNRGEC
notes: expressed in ExpiCHO and purified on Protein A; also called Chimeric IgG1; IgG1 chimeric antibody
For B2, the binding result in test [4] is “binds”.

B3: anti-CD40 5C2 chimeric antibody comprising human IgG2 constant region (antibody)
heavy: QVQMLQSGTELVRPGTSVKVSCKASGYGFTNYLIEWVKQRPGQGLEWIGVINPGYGGVNYNEKFKGKAILTADKSSSTAYMHLTSLTSDDSAVYFCARGGSGFAFWGQGTLVTVSTASTKGPSVFPLAPCSRSTSESTAALGCLVKDYFPEPVTVSWNSGALTSGVHTFPAVLQSSGLYSLSSVVTVPSSNFGTQTYTCNVDHKPSNTKVDKTVERKCCVECPPCPAPPVAGPSVFLFPPKPKDTLMISRTPEVTCVVVDVSHEDPEVQFNWYVDGVEVHNAKTKPREEQFNSTFRVVSVLTVVHQDWLNGKEYKCKVSNKGLPAPIEKTISKTKGQPREPQVYTLPPSREEMTKNQVSLTCLVKGFYPSDIAVEWESNGQPENNYKTTPPMLDSDGSFFLYSKLTVDKSRWQQGNVFSCSVMHEALHNHYTQKSLSLSPGK
light: DIQMTQTTSSLSASLGQRVTISCRASQDISNHLNWYQQKPNGTVRLLISSTSRLHSGVPSRFSGSGSGTDYSLTISNLEQEDIATYFCQQGNTLPWTFGGGTKLEIKRTVAAPSVFIFPPSDEQLKSGTASVVCLLNNFYPREAKVQWKVDNALQSGNSQESVTEQDSKDSTYSLSSTLTLSKADYEKHKVYACEVTHQGLSSPVTKSFNRGEC
notes: also called Chimeric IgG2; IgG2 chimeric antibody
Consider B3, for which the binding result in test [4] is on record as “binds”.

B4: anti-CD40 5C2 chimeric antibody comprising human IgG4 constant region (antibody)
heavy: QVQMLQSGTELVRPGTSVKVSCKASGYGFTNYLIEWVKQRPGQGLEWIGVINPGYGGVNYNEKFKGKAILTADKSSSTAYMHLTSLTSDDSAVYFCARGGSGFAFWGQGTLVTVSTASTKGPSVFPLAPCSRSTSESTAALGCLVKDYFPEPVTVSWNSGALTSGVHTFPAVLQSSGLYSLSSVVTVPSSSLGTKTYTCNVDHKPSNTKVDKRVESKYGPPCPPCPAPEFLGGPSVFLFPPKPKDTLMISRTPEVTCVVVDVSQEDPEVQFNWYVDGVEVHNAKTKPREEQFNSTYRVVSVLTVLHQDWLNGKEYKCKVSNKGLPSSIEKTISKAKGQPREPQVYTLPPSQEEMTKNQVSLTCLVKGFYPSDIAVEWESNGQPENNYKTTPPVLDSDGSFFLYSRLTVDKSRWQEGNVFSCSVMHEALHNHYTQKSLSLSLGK
light: DIQMTQTTSSLSASLGQRVTISCRASQDISNHLNWYQQKPNGTVRLLISSTSRLHSGVPSRFSGSGSGTDYSLTISNLEQEDIATYFCQQGNTLPWTFGGGTKLEIKRTVAAPSVFIFPPSDEQLKSGTASVVCLLNNFYPREAKVQWKVDNALQSGNSQESVTEQDSKDSTYSLSSTLTLSKADYEKHKVYACEVTHQGLSSPVTKSFNRGEC
notes: also called Chimeric IgG4; IgG4 chimeric antibody
Regarding B4, the binding result in test [4] is “binds”.

B5: humanized 5C2 antibody VH5VL1 (a combination of heavy chain VH5 and light chain VL1) (antibody, human IgG2, V domains shown)
VH: EVQLVQSGAEVKKPGESVKISCKASGYGFTNYLIEWVRQMPGKGLEWIGVINPGYGGVNYNEKFKGQATLSADKSISTAYLQLSSLKASDTAVYFCARGGSGFAFWGQGTLVTVSS
VL: DIQMTQSPSSLSASVGDRVTITCRASQDISNHLNWYQQKPGKAVKLLISSTSRLHSGVPSRFSGSGSGTDYTLTISSLQPEDFATYFCQQGNTLPWTFGQGTKVEIK
notes: Tested as CHO culture supernatant
For the molecule B5, the binding result in test [5] is on record as “binds”.

B6: humanized 5C2 antibody VH1VL1 (a combination of heavy chain VH1 and light chain VL1) (antibody, human IgG2, V domains shown)
VH: QVQLVQSGAEVKKPGASVKVSCKASGYGFTNYLIEWVRQAPGQGLEWIGVINPGYGGVNYNEKFKGRATLTADKSISTAYMELSRLRSDDTAVYFCARGGSGFAFWGQGTLVTVSS
VL: DIQMTQSPSSLSASVGDRVTITCRASQDISNHLNWYQQKPGKAVKLLISSTSRLHSGVPSRFSGSGSGTDYTLTISSLQPEDFATYFCQQGNTLPWTFGQGTKVEIK
notes: as for B5
Turning to B6, the binding result in test [5] is reported as “binds”.

B7: humanized 5C2 antibody VH5VL2 (a combination of heavy chain VH5 and light chain VL2) (antibody, human IgG2, V domains shown)
VH: EVQLVQSGAEVKKPGESVKISCKASGYGFTNYLIEWVRQMPGKGLEWIGVINPGYGGVNYNEKFKGQATLSADKSISTAYLQLSSLKASDTAVYFCARGGSGFAFWGQGTLVTVSS
VL: EIVMTQSPATLSVSPGERATLSCRASQDISNHLNWYQQKPGQAVRLLISSTSRLHSGIPARFSGSGSGTEYTLTISSLQSEDFAVYFCQQGNTLPWTFGQGTKVEIK
notes: as for B5
B7: the binding result in test [5] is given as “binds”.

B8: humanized 5C2 antibody VH2VL1 (a combination of heavy chain VH2 and light chain VL1) (antibody, human IgG2, V domains shown)
VH: QVQLVQSGAEVKKPGASVKVSCKASGYGFTNYLIEWVRQAPGQGLEWIGVINPGYGGVNYNEKFKGRVTLTADKSISTAYMELSRLRSDDTAVYFCARGGSGFAFWGQGTLVTVSS
VL: DIQMTQSPSSLSASVGDRVTITCRASQDISNHLNWYQQKPGKAVKLLISSTSRLHSGVPSRFSGSGSGTDYTLTISSLQPEDFATYFCQQGNTLPWTFGQGTKVEIK
notes: as for B5
Take B8: the binding result in test [5] was “binds”.

B9: humanized 5C2 antibody VH3VL1 (a combination of heavy chain VH3 and light chain VL1) (antibody, human IgG2, V domains shown)
VH: QVQLVQSGAEVKKPGSSVKVSCKASGYGFTNYLIEWVRQAPGQGLEWIGVINPGYGGVNYNEKFKGRATLTADKSTSTAYMELSSLRSEDTAVYFCARGGSGFAFWGQGTLVTVSS
VL: DIQMTQSPSSLSASVGDRVTITCRASQDISNHLNWYQQKPGKAVKLLISSTSRLHSGVPSRFSGSGSGTDYTLTISSLQPEDFATYFCQQGNTLPWTFGQGTKVEIK
notes: as for B5
Consider B9, for which the binding result in test [5] is listed as “binds”.

B10: humanized 5C2 antibody VH1VL2 (a combination of heavy chain VH1 and light chain VL2) (antibody, human IgG2, V domains shown)
VH: QVQLVQSGAEVKKPGASVKVSCKASGYGFTNYLIEWVRQAPGQGLEWIGVINPGYGGVNYNEKFKGRATLTADKSISTAYMELSRLRSDDTAVYFCARGGSGFAFWGQGTLVTVSS
VL: EIVMTQSPATLSVSPGERATLSCRASQDISNHLNWYQQKPGQAVRLLISSTSRLHSGIPARFSGSGSGTEYTLTISSLQSEDFAVYFCQQGNTLPWTFGQGTKVEIK
notes: as for B5
For the molecule B10, in test [5], the binding result is “binds”.

B11: humanized 5C2 antibody VH2VL2 (a combination of heavy chain VH2 and light chain VL2) (antibody, human IgG2, V domains shown)
VH: QVQLVQSGAEVKKPGASVKVSCKASGYGFTNYLIEWVRQAPGQGLEWIGVINPGYGGVNYNEKFKGRVTLTADKSISTAYMELSRLRSDDTAVYFCARGGSGFAFWGQGTLVTVSS
VL: EIVMTQSPATLSVSPGERATLSCRASQDISNHLNWYQQKPGQAVRLLISSTSRLHSGIPARFSGSGSGTEYTLTISSLQSEDFAVYFCQQGNTLPWTFGQGTKVEIK
notes: as for B5
For B11, the binding result in test [5] was “binds”.

B12: humanized 5C2 antibody VH3VL2 (a combination of heavy chain VH3 and light chain VL2) (antibody, human IgG2, V domains shown)
VH: QVQLVQSGAEVKKPGSSVKVSCKASGYGFTNYLIEWVRQAPGQGLEWIGVINPGYGGVNYNEKFKGRATLTADKSTSTAYMELSSLRSEDTAVYFCARGGSGFAFWGQGTLVTVSS
VL: EIVMTQSPATLSVSPGERATLSCRASQDISNHLNWYQQKPGQAVRLLISSTSRLHSGIPARFSGSGSGTEYTLTISSLQSEDFAVYFCQQGNTLPWTFGQGTKVEIK
notes: as for B5
As to B12, in test [5], the binding result was “binds”.
